Our source for the EC50 (ug/ml) hIL12R+ PD1+ cells (pSTAT4 reporter cell line, PD1-positive) and EC50 (ug/ml) hIL12R+ cells (pSTAT4 reporter cell line, PD1-negative) values is US20240010696A1.

In the test the target is human IL-12 receptor on cells (human) (UniProt P42701). Kind of test: cell-based or functional assay.
Sequence of human IL-12 receptor on cells (human) (Q99665 24-862, chain 2 of 2, other chains not shown): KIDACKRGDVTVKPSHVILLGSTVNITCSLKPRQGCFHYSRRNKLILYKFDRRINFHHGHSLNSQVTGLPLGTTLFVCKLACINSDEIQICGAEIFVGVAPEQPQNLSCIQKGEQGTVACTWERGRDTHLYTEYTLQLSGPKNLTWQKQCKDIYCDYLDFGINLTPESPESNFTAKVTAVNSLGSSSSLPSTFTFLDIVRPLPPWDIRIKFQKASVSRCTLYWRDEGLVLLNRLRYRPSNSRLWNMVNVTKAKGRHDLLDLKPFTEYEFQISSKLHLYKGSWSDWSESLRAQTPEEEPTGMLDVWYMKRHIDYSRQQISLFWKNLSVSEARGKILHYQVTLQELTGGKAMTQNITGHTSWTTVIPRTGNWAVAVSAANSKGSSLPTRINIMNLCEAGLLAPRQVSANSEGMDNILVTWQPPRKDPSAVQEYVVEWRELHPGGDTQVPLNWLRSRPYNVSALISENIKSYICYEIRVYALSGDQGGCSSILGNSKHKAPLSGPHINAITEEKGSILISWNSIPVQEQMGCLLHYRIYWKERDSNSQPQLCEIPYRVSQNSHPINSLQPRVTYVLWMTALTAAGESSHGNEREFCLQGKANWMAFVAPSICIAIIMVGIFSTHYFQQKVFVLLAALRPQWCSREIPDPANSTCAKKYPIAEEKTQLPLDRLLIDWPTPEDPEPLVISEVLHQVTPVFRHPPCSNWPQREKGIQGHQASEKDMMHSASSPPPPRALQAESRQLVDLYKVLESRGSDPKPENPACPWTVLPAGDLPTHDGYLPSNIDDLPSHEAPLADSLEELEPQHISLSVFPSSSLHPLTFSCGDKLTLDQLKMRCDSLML

The substance WT IL-12 (row of Table 10) had an EC50 (ug/ml) hIL12R+ PD1+ cells (pSTAT4 reporter cell line, PD1-positive) of 0.03 µg/ml and an EC50 (ug/ml) hIL12R+ cells (pSTAT4 reporter cell line, PD1-negative) of 0.1 µg/ml.
